The record followed here is US20170202931.

What all share (assay): cell_activity
The test system of data set [1] is ZFN SBS 48641 (mouse albumin intron 1) (synthetic). The settings on record: as pair with 31523; mouse liver in vivo, males 4 months (females 45.69; 1 month 46.67 male, 34.05 female); deep sequencing.
Data set [2] has as its system ZFN SBS 31523 (mouse albumin intron 1) (synthetic). The settings on record: as pair with 48641; mouse liver in vivo, males 4 months (females 45.69; 1 month 46.67 male, 34.05 female); deep sequencing.
Data set [3] deals with ZFN pair SBS 47171 / SBS 47931 (human albumin) (synthetic). The settings on record: HepG2 cells with IDS donor, 3 days (62.27 with IDUA donor); MiSeq.

In data set [1], “CTGAAGGTGGCAATGGTTCCTCTCTGCT (double strand) [48641 target site]” came in with an activity of 55.6 % indels.

As to “TTTCCTGTAACGATCGGGAACTGGCATC (double strand) [31523 target site]”, the activity in data set [2] turned out to be 55.6 % indels. Consider human albumin locus ZFN site, for which the activity in data set [3] stood at 59.3 % indels.
